Reference: patent US20240261333A1, “NOVEL TARGETS FOR ENHANCING ANTI-TUMOR IMMUNITY” (THE BROAD INSTITUTE, INC., priority 2021, published 2024)

B1: RBM39 (protein)
chain: ADDIDIEAMLEAPYKKDENKLSSANGHEERSKKRKKSKSRSRSHERKRSKSKERKRSRDRERKKSKSRERKRSRSKERRRSRSRSRDRRFRGRYRSPYRRRSRSKSPFRKDKSPVREPIDNLTPEERDARTVFCMQLAARIRPRDLEEFFSTVGKVRDVRMISDRNSRRSKGIAYVEFVDVSSVPLAIGLTGQRVLGVPIIVQASQAEKNRAAAMANNLQKGSAGPMRLYVGSLHFNITEDMLRGIFEPFGRIESIQLMMDSETGRSKGYGFITFSDSECAKKALEQLNGFELAGRPMKVGHVTERTDASSASSFLDSDELERTGIDLGTTGRLQLMARLAEGTGLQIPPAAQQALQMSGSLAFGAVAEFSFVIDLQTRLSQQTEASALAAAASVQPLATQCFQLSNMFNPQTEEEVGWDTEIKDDVIEECNKHGGVIHIYVDKNSAQGNVYVKCPSIAAAIAAVNALHGRWFAGKMITAAYVPLPTYHNLFPDSMTATQLLVPSRR
B2: PUM1 (protein)
chain: SVACVLKRKAVLWQDSFSPHLKHHPQEPANPNMPVVLTSGTGSQAQPQPAANQALAAGTHSSPVPGSIGVAGRSQDDAMVDYFFQRQHGEQLGGGGSGGGGYNNSKHRWPTGDNIHAEHQVRSMDELNHDFQALALEGRAMGEQLLPGKKFWETDESSKDGPKGIFLGDQWRDSAWGTSDHSVSQPIMVQRRPGQSFHVNSEVNSVLSPRSESGGLGVSMVEYVLSSSPGDSCLRKGGFGPRDADSDENDKGEKKNKGTFDGDKLGDLKEEGDVMDKTNGLPVQNGIDADVKDFSRTPGNCQNSANEVDLLGPNQNGSEGLAQLTSTNGAKPVEDFSNMESQSVPLDPMEHVGMEPLQFDYSGTQVPVDSAAATVGLFDYNSQQQLFQRPNALAVQQLTAAQQQQYALAAAHQPHIGLAPAAFVPNPYIISAAPPGTDPYTAGLAAAATLGPAVVPHQYYGVTPWGVYPASLFQQQAAAAAAATNSANQQTTPQAQQGQQQVLRGGASQRPLTPNQNQQGQQTDPLVAAAAVNSALAFGQGLAAGMPGYPVLAPAAYYDQTGALVVNAGARNGLGAPVRLVAPAPVIISSSAAQAAVAAAAASANGAAGGLAGTTNGPFRPLGTQQPQPQPQQQPNNNLASSSFYGNNSLNSNSQSSSLFSQGSAQPANTSLGFGSSSSLGATLGSALGGFGTAVANSNTGSGSRRDSLTGSSDLYKRTSSSLTPIGHSFYNGLSFSSSPGPVGMPLPSQGPGHSQTPPPSLSSHGSSSSLNLGGLTNGSGRYISAAPGAEAKYRSASSASSLFSPSSTLFSSSRLRYGMSDVMPSGRSRLLEDFRNNRYPNLQLREIAGHIMEFSQDQHGSRFIQLKLERATPAERQLVFNEILQAAYQLMVDVFGNYVIQKFFEFGSLEQKLALAERIRGHVLSLALQMYGCRVIQKALEFIPSDQQVINEMVRELDGHVLKCVKDQNGNHVVQKCIECVQPQSLQFIIDAFKGQVFALSTHPYGCRVIQRILEHCLPDQTLPILEELHQHTEQLVQDQYGNYVIQHVLEHGRPEDKSKIVAEIRGNVLVLSQHKFASNVVEKCVTHASRTERAVLIDEVCTMNDGPHSALYTMMKDQYANYVVQKMIDVAEPGQRKIVMHKIRPHIATLRKYTYGKHILAKLEKYYMKNGVDLGPICGPPNGII
B3: EIF5B (protein)
chain: MGKKQKNKSEDSTKDDIDLDALAAEIEGAGAAKEQEPQKSKGKKKKEKKKQDFDEDDILKELEELSLEAQGIKADRETVAVKPTENNEEEFTSKDKKKKGQKGKKQSFDDNDSEELEDKDSKSKKTAKPKVEMYSGSDDDDDFNKLPKKAKGKAQKSNKKWDGSEEDEDNSKKIKERSRINSSGESGDESDEFLQSRKGQKKNQKNKPGPNIESGNEDDDASFKIKTVAQKKAEKKERERKKRDEEKAKLRKLKEKEELETGKKDQSKQKESQRKFEEETVKSKVTVDTGVIPASEEKAETPTAAEDDNEGDKKKKDKKKKKGEKEEKEKEKKKGPSKATVKAMQEALAKLKEEEERQKREEEERIKRLEELEAKRKEEERLEQEKRERKKQKEKERKERLKKEGKLLTKSQREARARAEATLKLLQAQGVEVPSKDSLPKKRPIYEDKKRKKIPQQLESKEVSESMELCAAVEVMEQGVPEKEETPPPVEPEEEEDTEDAGLDDWEAMASDEETEKVEGNKVHIEVKENPEEEEEEEEEEEEDEESEEEEEEEGESEGSEGDEEDEKVSDEKDSGKTLDKKPSKEMSSDSEYDSDDDRTKEERAYDKAKRRIEKRRLEHSKNVNTEKLRAPIICVLGHVDTGKTKILDKLRHTHVQDGEAGGITQQIGATNVPLEAINEQTKMIKNFDRENVRIPGMLIIDTPGHESFSNLRNRGSSLCDIAILVVDIMHGLEPQTIESINLLKSKKCPFIVALNKIDRLYDWKKSPDSDVAATLKKQKKNTKDEFEERAKAIIVEFAQQGLNAALFYENKDPRTFVSLVPTSAHTGDGMGSLIYLLVELTQTMLSKRLAHCEELRAQVMEVKALPGMGTTIDVILINGRLKEGDTIIVPGVEGPIVTQIRGLLLPPPMKELRVKNQYEKHKEVEAAQGVKILGKDLEKTLAGLPLLVAYKEDEIPVLKDELIHELKQTLNAIKLEEKGVYVQASTLGSLEALLEFLKTSEVPYAGINIGPVHKKDVMKASVMLEHDPQYAVILAFDVRIERDAQEMADSLGVRIFSAEIIYHLFDAFTKYRQDYKKQKQEEFKHIAVFPCKIKILPQYIFNSRDPIVMGVTVEAGQVKQGTPMCVPSKNFVDIGIVTSIEINHKQVDVAKKGQEVCVKIEPIPGESPKMFGRHFEATDILVSKISRQSIDALKDWFRDEMQKSDWQLIVELKKVFEII
B4: CSE1L (protein)
chain: MELSDANLQTLTEYLKKTLDPDPAIRRPAEKFLESVEGNQNYPLLLLTLLEKSQDNVIKVCASVTFKNYIKRNWRIVEDEPNKICEADRVAIKANIVHLMLSSPEQIQKQLSDAISIIGREDFPQKWPDLLTEMVNRFQSGDFHVINGVLRTAHSLFKRYRHEFKSNELWTEIKLVLDAFALPLTNLFKATIELCSTHANDASALRILFSSLILISKLFYSLNFQDLPEFFEDNMETWMNNFHTLLTLDNKLLQTDLVSNAIQFLASVCERPHYKNLFEDQNTLTSICEKVIVPNMEFRAADEEAFEDNSEEYIRRDLEGSDIDTRRRAACDLVRGLCKFFEGPVTGIFSGYVNSMLQEYAKNPSVNWKHKDAAIYLVTSLASKAQTQKHGITQANELVNLTEFFVNHILPDLKSANVNEFPVLKADGIKYIMIFRNQVPKEHLLVSIPLLINHLQAESIVVHTYAAHALERLFTMRGPNNATLFTAAEIAPFVEILLTNLFKALTLPGSSENEYIMKAIMRSFSLLQEAIIPYIPTLITQLTQKLLAVSKNPSKPHFNHYMFEAICLSIRITCKANPAAVVNFEEALFLVFTEILQNDVQEFIPYVFQVMSLLLETHKNDIPSSYMALFPHLLQPVLWERTGNIPALVRLLQAFLERGSNTIASAAADKIPGLLGVFQKLIASKANDHQGFYLLNSIIEHMPPESVDQYRKQIFILLFQRLQNSKTTKFIKSFLVFINLYCIKYGALALQEIFDGIQPKMFGMVLEKIIIPEIQKVSGNVEKKICAVGITKLLTECPPMMDTEYTKLWTPLLQSLIGLFELPEDDTIPDEEHFIDIEDTPGYQTAFSQLAFAGKKEHDPVGQMVNNPKIHLAQSLHKLSTACPGRVPSMVSTSLNAEALQYLQGYLQAASVTLL
B5: HADHB (protein)
chain: AAPAVQTKTKKTLAKPNIRNVVVVDGVRTPFLLSGTSYKDLMPHDLARAALTGLLHRTSVPKEVVDYIIFGTVIQEVKTSNVAREAALGAGFSDKTPAHTVTMACISANQAMTTGVGLIASGQCDVIVAGGVELMSDVPIRHSRKMRKLMLDLNKAKSMGQRLSLISKFRFNFLAPELPAVSEFSTSETMGHSADRLAAAFAVSRLEQDEYALRSHSLAKKAQDEGLLSDVVPFKVPGKDTVTKDNGIRPSSLEQMAKLKPAFIKPYGTVTAANSSFLTDGASAMLIMAEEKALAMGYKPKAYLRDFMYVSQDPKDQLLLGPTYATPKVLEKAGLTMNDIDAFEFHEAFSGQILANFKAMDSDWFAENYMGRKTKVGLPPLEKFNNWGGSLSLGHPFGATGCRLVMAAANRLRKEGGQYGLVAACAAGGQGHAMIVEAYPK
B6: DDOST (protein)
chain: SGPRTLVLLDNLNVRETHSLFFRSLKDRGFELTFKTADDPSLSLIKYGEFLYDNLIIFSPSVEDFGGNINVETISAFIDGGGSVLVAASSDIGDPLRELGSECGIEFDEEKTAVIDHHNYDISDLGQHTLIVADTENLLKAPTIVGKSSLNPILFRGVGMVADPDNPLVLDILTGSSTSYSFFPDKPITQYPHAVGKNTLLIAGLQARNNARVIFSGSLDFFSDSFFNSAVQKAAPGSQRYSQTGNYELAVALSRWVFKEEGVLRVGPVSHHRVGETAPPNAYTVTDLVEYSIVIQQLSNGKWVPFDGDDIQLEFVRIDPFVRTFLKKKGGKYSVQFKLPDVYGVFQFKVDYNRLGYTHLYSSTQVSVRPLQHTQYERFIPSAYPYYASAFSMMLGLFIFSIVFLHMKEKEKSD

Molecular target: T1, B3GNT2 (Homo sapiens, UniProt Q9NY97)
T1 construct: The respective ORFs of candidate genes [CD274 (NM_014143), MCL1 (NM_021960), JUNB (NM_002229), and B3GNT2 (NM_006577)] were synthesized; expressed in transfected cells; host or cells: A375 melanoma cells (lentiviral ORF overexpression)
T1 sequence (Q9NY97 1-397): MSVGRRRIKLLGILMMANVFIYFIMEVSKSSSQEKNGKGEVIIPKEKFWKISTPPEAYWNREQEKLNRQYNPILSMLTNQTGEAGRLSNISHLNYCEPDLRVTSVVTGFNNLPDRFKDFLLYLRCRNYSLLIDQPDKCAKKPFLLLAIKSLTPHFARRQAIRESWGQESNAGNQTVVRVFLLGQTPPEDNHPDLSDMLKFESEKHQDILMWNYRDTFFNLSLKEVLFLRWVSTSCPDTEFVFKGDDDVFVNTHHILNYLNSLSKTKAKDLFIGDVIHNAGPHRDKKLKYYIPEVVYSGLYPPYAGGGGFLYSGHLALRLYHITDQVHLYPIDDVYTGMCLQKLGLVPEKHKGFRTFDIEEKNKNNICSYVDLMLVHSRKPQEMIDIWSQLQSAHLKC
Test: Co-IP of FLAG-tagged B3GNT2 followed by mass spectrometry
Format: cell-based
Set-up: C-term IgG / C-term flag: unit not given here
Details: Co-IP followed by mass spectrometry of B3GNT2; C-term tag, FLAG pull-down
Summary of the method: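 Co-purifying proteins were identified by fractionated nano-LC–MS/MS on an Orbitrap Elite, run data-dependent. Beforehand, lysates in 1% Triton X-100/HEPES buffer were incubated overnight at 4° C with anti-FLAG or […] and pulled down on Protein A/G magnetic beads for 4 h. Duplicate biological replicates.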

Molecule	C-term flag
B1	5
B2	3
B3	3
B4	3
B5	3

Same assay, conditions: Co-IP followed by mass spectrometry of B3GNT2; C-term tag, IgG pull-down

Molecule	C-term IgG
B1	3
B2	0
B3	0
B4	0
B5	0

Same assay, conditions: Co-IP followed by mass spectrometry of B3GNT2; N-term tag, FLAG pull-down

Molecule	N-term FLAG
B1	4
B2	0
B3	0
B4	0
B5	0

Same assay, conditions: Co-IP followed by mass spectrometry of B3GNT2; N-term tag, IgG pull-down

Molecule	N-term IgG
B1	5
B2	0
B3	0
B4	0
B5	0

Same assay, conditions: Co-IP with FLAG antibody, C-terminally FLAG-tagged B3GNT2; mass spectrometry count, unit not given

Molecule	C-term flag
B6	3

Same assay, conditions: Co-IP with FLAG antibody, N-terminally FLAG-tagged B3GNT2; mass spectrometry count, unit not given

Molecule	N-term FLAG
B6	0

Same assay, conditions: Co-IP with IgG control antibody, C-terminally FLAG-tagged B3GNT2; mass spectrometry count, unit not given

Molecule	C-term IgG
B6	0

Same assay, conditions: Co-IP with IgG control antibody, N-terminally FLAG-tagged B3GNT2; mass spectrometry count, unit not given

Molecule	N-term IgG
B6	0
